Biological target: Haemophilus surface fibril (Hsf) putative domain 1 (PD1) (H. influenzae)
Experiment: SEC-MALLS; Superdex 200 5/150, buffer C (50 mM Tris, 150 mM NaCl pH 8.0), 0.2 ml/min; LS, dRI and UV detectors; IMAC- and SEC-purified HsfPD1

Haemophilus surface fibril (Hsf) putative domain 1 (PD1) (domain or fragment)
stoichiometry N: 3

— paper PMC5297931
